Laboratory results as given in the supplement of paper PMC9170038.

Tested on: MS2 coat protein
Test: apparent KD of MS2 coat protein; designed switch direction (-1 OFF switch, 1 ON switch): -1; higher = weaker reporter binding
Method in brief: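 SNAP-549-labelled MS2 coat protein was titrated, doubling from 0.7 or 1.5 nM to 3 µM, over designed RNA switches transcribed on Illumina chips by stalled E. coli RNA polymerase. Runs were done without input, with 200 uM small-molecule ligand, or with an oligonucleotide input. Apparent KD is the per-design median over clusters of curve-fitted normalised fluorescence.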

[1] = Eterna round: R95, input ligand: FMN 200 uM
[2] = Eterna round: R95, input ligand: microRNA oligo, concentration not stated
[3] = Eterna round: R95, input ligand: none
[4] = input ligand: microRNA oligo, concentration not stated

| Sequence | apparent KD of MS2 coat protein (input ligand: FMN 200 uM) [nM] | apparent KD of MS2 coat protein (input ligand: none) [nM] | apparent KD of MS2 coat protein [1] [nM] | apparent KD of MS2 coat protein [2] [nM] | apparent KD of MS2 coat protein [3] [nM] | apparent KD of MS2 coat protein [4] [nM] |
| --- | --- | --- | --- | --- | --- | --- |
| AGAGUGAGAGGAUAUUGGAUUCCUAACAUGAGGAUCACCCAUGUAGUACGGUGCUACUGACAAGAAGGCUCACUCU [etrenacac ex5r4 #7] (Eterna round: R97, puzzle: Exclusion 5) | 54.5 | 76.1 |  |  |  |  |
| AGAGUGUGAGGAUAUAUGGUGAAGGUGAAGAGAGAGGAGGAGUAGAAGGUACAUGAGGAUCACCCAUGUUUGGA [JR_Exclu4_Sub075] (puzzle: Exclusion 4) |  |  | 32.1 | 33 | 40.8 |  |
| AGAUAGUGGUGAGGAUAUGAGAAUAGAAAGAAAUCAGAAGGCACACAUGAGGAUCACCCAUGUGAGUUCUUGAGAUUACAUGGU [Prohibition 42 - Jieux - Exclusion NG 1] (Eterna round: R96, puzzle: Exclusion NG 1) | 22.6 | 15.4 |  |  |  | 11.3 |
| AGAUCACAUGAGGAUCACCCAUGUCAGGAUAUCAUCAUUGAAGCUGCGGCUUCAAUGAUGAGAAGGGACAUAAU [E1/2-B3] (Eterna round: R97, puzzle: Exclusion 1) | 105 | 412 |  |  |  |  |
| AGAUCACAUGAGGAUCACCCAUGUGAGGAUAUAGACUGAAGAGCUUCGGCUCUUCAGUCUAGAAGGCACUAUGA [EX1 #45] (Eterna round: R97, puzzle: Exclusion 1) | 28.9 | 25.9 |  |  |  |  |
| AGAUCUAGGACAGGAUAUACCGAUGGCUUCAUCGAAGAUGAAGCCAUCACAUGAGGAUCACCCAUGUAGAAGGGUCCUAGAUCA [Omei Exc(NG) 2Av9] (Eterna round: R96, puzzle: Exclusion NG 2) | 11.5 | 13.7 |  |  |  | 9.95 |
| AGAUCUAGGACAGGAUAUAUGGAUGUCUUCAUCGAAGAUGAAGACAUUACAUGAGGAUCACCCAUGUAGAAGGGUCCUAGAUCA [Omei Exc(NG) 2Av3] (Eterna round: R96, puzzle: Exclusion NG 2) | 17.3 | 22.2 |  |  |  | 17.5 |
| AGAUGGAUUGCUAGAAAACUAGUAAUUCAUCAAUCAAGCACAUGAGGAUCACCCAUGUCUUAGAGUACGUGAGUACA [JL gull wing 9] (Eterna round: R96, puzzle: Sensor v2, turn-off variant 2) | 12.8 | 16 |  |  |  | 12.5 |
| AGAUGGCGAGGAUAUACAUGAGGAUCACCCAUGUGAGAGAUUAGAGUGAGGAAGAAAAGUAGAAGGCGCUGUCA [Mat - Exclusion 3 - Mod of Salish D18] (puzzle: Exclusion 3) |  |  | 167 | 98.4 | 144 |  |
| AGAUGUAGAUUCCGAUCCUACAUGAGGAUCACCCAUGUAGCUAGACGUGCGGGCGGCGCUCGUCGGACUACCAGUAG [salish99_TOv1_r3_096] (puzzle: Sensor v3, turn-off variant 1) |  |  | 53.5 | 69.8 | 84.6 |  |
| AGCAUGCUAGGAUAUACGGGACAUUAGGGUUCGUUGUGUGGACAUGAGGAUCACCCAUGUAGAAGGAGCGUGCA [Mat - Exclusion 2 - Mod of Hyphema - D91] (puzzle: Exclusion 2) |  |  |  | 73.1 |  |  |
| AGCCACAGAGGAUAUACAUACAUCCAGUAGUUGAGAAGACUACAUGAGGAUCACCCAUGUAGAAGGCUGUGGCA [Omei Ex2 BD B3] (Eterna round: R97, puzzle: Exclusion 2) | 95.5 | 395 |  |  |  |  |
| AGCCAGCUAGGAUAUUGCAGUUGUAACAUGAGGAUCACCCAUGUGAUAGGUGUUUAGCUCCAAGAAGGAGCGCGGC [Eronsoti] (puzzle: Exclusion 5) |  |  | 88.7 | 27.1 | 28 |  |
| AGCCAUGAAGGAUAUACAUGAGGAUCACCCAUGUUGCGGACAGGUUUGAUCGGCGUAGGUAGAAGGUCAAGUAG [Eternabot (L2) Solution 62] (Eterna round: R97, puzzle: Exclusion 3) | 28.2 | 22.1 |  |  |  |  |
| AGCCCUGCAGGAUAUGCCCGGGAUAACAUGAGGAUCACCCAUGUGACCGAUUGUUAUUCUGCAGAAGGGCAUGGGA [JL-EX5-4.17 ViennaUCT mod] (Eterna round: R97, puzzle: Exclusion 5) | 228 | 235 |  |  |  |  |
| AGCCCUGCAGGAUAUGCCCGGGAUAACAUGAGGAUCACCCAUGUGACCGGUUGUUAGACUGCAGAAGGGCAUGGGA [salish99_ex5_r4_302] (Eterna round: R97, puzzle: Exclusion 5) | 14.8 | 12.2 |  |  |  |  |
